In US7507799:

Tests used:
[1] = tested on: T1, rat BDNF secreted by adenovirus-infected 293T or endothelial cells (proforms of 30 kDa and 28 kDa)
T1 sequence: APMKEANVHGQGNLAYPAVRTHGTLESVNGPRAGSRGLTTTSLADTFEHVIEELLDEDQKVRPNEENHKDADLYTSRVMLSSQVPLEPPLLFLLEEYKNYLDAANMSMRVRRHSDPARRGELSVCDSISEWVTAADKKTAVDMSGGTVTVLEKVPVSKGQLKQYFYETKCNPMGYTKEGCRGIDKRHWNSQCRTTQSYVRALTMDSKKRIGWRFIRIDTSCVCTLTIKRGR

[2] = tested on: His-tagged cleavage resistant pro-NGF (point mutant, K-R cleavage site at 120,121 mutated to A-A)

B1: MMP-7 (enzyme, UniProt P09237 95-267, looked up, species assumed)
Matrilysin: YSLFPNSPKWTSKVVTYRIVSYTRDLPHITVDRLVSKALNMWGKEIPLHFRKVVWGTADIMIGFARGAHGDSYPFDGPGNTLAHAFAPGTGLGGDAHFDEDERWTDGSSLGINFLYAATHELGHSLGMGHSSDPNAVMYPTYGNGDPQNFKLSQDDIKGIQKLYGKRSNSRKK
For B1, the “proteolytic cleavage in endothelial media, Western blot” value [1] was “In endothelial media, only plasmin and MMP-7 appeared to cleave the large proform”, the “proteolytic cleavage, Western blot” value [1] was “Treatment of the media with recombinant MMP7 resulted in a reduction in the high molecular weight isoforms of 30 kDa or 28 kDa, and the generation of a novel form of approximately 17 kDa” and the “proteolytic cleavage, Western blot” value [2] was “incubation of the pro-NGF with MMP-7 but not MMP-2, -3, or -9 resulted in cleavage of the 30 kD proform of NGF to the 17 kD form”.
